Measurements reported in patent US20150274808A1 (Biogen, published 2015).

Molecular target: T1, human antigen that binds to mAb1 (human LINGO-1) (human, UniProt Q96FE5 42-538, limits assumed)
T1 sequence (looked up): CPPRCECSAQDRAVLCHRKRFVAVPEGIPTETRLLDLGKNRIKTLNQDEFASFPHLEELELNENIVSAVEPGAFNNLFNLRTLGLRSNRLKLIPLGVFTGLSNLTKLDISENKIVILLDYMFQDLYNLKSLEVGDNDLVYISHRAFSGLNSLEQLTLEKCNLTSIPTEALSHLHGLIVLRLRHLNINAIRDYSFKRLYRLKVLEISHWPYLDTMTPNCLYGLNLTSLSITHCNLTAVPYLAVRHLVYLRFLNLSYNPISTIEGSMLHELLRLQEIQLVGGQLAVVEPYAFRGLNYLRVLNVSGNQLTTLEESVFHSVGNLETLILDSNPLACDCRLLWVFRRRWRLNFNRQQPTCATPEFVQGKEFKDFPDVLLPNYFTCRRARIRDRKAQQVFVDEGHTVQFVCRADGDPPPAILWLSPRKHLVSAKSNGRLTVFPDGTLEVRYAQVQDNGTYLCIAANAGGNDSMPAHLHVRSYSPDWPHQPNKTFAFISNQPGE
Assay: direct binding ELISA on plate-coated human antigen; preparation with 39% trisulfide at LC5-HC5
Protocol: Costar 96-well easy wash plates were coated overnight with 5 μg/mL human antigen that binds to mAb1 (50 μL/well), in 50 mM sodium carbonate (pH 9.5) at 4° C. Plates were washed 3 times with 350 μL of PBS using a plate washer and blocked with 1% BSA, 0.1% ovalbumin, and 0.1% non-fat dry milk in Hank's balanced salt buffer containing 25 mM HEPES (pH 7.0) for 1 hour at room temperature. Plates were then washed again, and incubated for 1 h with a 3-fold dilution series set up for each test compound (50 μL/well, 8 dilutions) starting at 10 μg/mL and all in 0.1% BSA, 0.1% ovalbumin, and 0.1% non-fat dry milk in Hank's balanced salt buffer containing 25 mM HEPES (pH 7.0), and again washed. Bound mAb1 was detected using AP-anti-human Fab. […] Plates were read at 405 nm on a Molecular Devices plate reader. EC₅₀ values for binding were calculated from the titration curve using prism software. The function of mAb2 was assessed as for mAb1 except that 96 well microplates were coated overnight at 4° C. with 1 μg/mL (in 15 mM Na₂CO₃, 35 mM NaHCO₃, pH 9.6) of a human antigen that binds to mAb2. […] Binding was determined using a horseradish peroxidase-conjugated goat anti-human polyclonal antibody (Jackson ImmunoResearch, West Grove, Pa.) followed by measurement of horse radish peroxidase activity using the substrate tetramethylbenzidine.

B1: anti-LINGO-1 antibody Li81 (antibody, V domains shown)
VH: EVQLLESGGGLVQPGGSLRLSCAASGFTFSAYEMKWVRQAPGKGLEWVSVIGPSGGFTFYADSVKGRFTISRDNSKNTLYLQMNSLRAEDTAVYYCATEGDNDAFDIWGQGTTVTVSS
VL: DIQMTQSPATLSLSPGERATLSCRASQSVSSYLAWYQQKPGQAPRLLIYDASNRATGIPARFSGSGSGTDFTLTISSLEPEDFAVYYCQQRSNWPMYTFGQGTKLEIK
notes: Tested as an aglycosyl human IgG1 made in CHO cells; They differ only in the share of trisulfide at the light-heavy (LC5-HC5) interchain bond; also called mAb1; Mab1
  EC50: 0.02 nM
